According to PMC6443806 (Scientific Reports, 2019):

Legend:
His54 = His54 (UniProt position 515, KNAVRHNLSLA); assay: stability (GdmCl equilibrium unfolding followed by intrinsic Trp fluorescence) with Wyman-Tanford linkage analysis; conditions: 37 °C, Not stated for the unfolding buffer (standard buffer contains 150 mM NaCl). GdmCl 0-6 M in the unfolding series., buffer at different pH values (composition not restated; standard buffer is 20 mM HEPES, 150 mM NaCl, 2 mM β-mercaptoethanol) supplemented with GdmCl, DNA-free
His59 [1] = molecular target: T1, His59 (UniProt position 520, HNLSLHKCFVR); assay: as above; conditions: 37 °C, Not stated for the unfolding buffer (standard buffer contains 150 mM NaCl). GdmCl 0-6 M in the unfolding series., buffer at different pH values (composition not restated; standard buffer is 20 mM HEPES, 150 mM NaCl, 2 mM β-mercaptoethanol) supplemented with GdmCl, DNA-free
His59 [2] = molecular target: T1, His59; assay: kinetics (SEC-monitored dimer dissociation) with Wyman-Tanford linkage analysis; conditions: 37 °C, 150 mM NaCl, standard buffer (20 mM HEPES, 150 mM NaCl, 2 mM β-mercaptoethanol) adjusted to different pH values, DNA-free
[3] = molecular target: forkhead domain of human FoxP1, H59A mutant (human); assay: SEC; isolated dimer diluted to 5 μM in standard buffer (20 mM HEPES, 150 mM NaCl, 2 mM β-mercaptoethanol) at pH 5.0, 37 °C, aliquots over 2 h on Superdex 75; dimer to monomers; Kd from the equilibrium dimer fraction, koff from a single exponential decay, kon derived from Kd = koff/kon
[4] = molecular target: forkhead domain of human FoxP1, H59A mutant (human); assay: SEC; isolated dimer diluted to 5 μM in standard buffer (20 mM HEPES, 150 mM NaCl, 2 mM β-mercaptoethanol) at pH 6.0, 37 °C, aliquots over 2 h on Superdex 75; dimer to monomers; Kd from the equilibrium dimer fraction, koff from a single exponential decay, kon derived from Kd = koff/kon
[5] = molecular target: forkhead domain of human FoxP1, H59A mutant (human); assay: SEC; isolated dimer diluted to 5 μM in standard buffer (20 mM HEPES, 150 mM NaCl, 2 mM β-mercaptoethanol) at pH 7.8, 37 °C, aliquots over 2 h on Superdex 75; dimer to monomers; Kd from the equilibrium dimer fraction, koff from a single exponential decay, kon derived from Kd = koff/kon
[6] = molecular target: the molecule itself; assay: SEC; isolated dimer diluted to 5 μM in standard buffer (20 mM HEPES, 150 mM NaCl, 2 mM β-mercaptoethanol) at pH 5.5, 37 °C, aliquots over 2 h on Superdex 75; dimer to monomers; Kd from the equilibrium dimer fraction, koff from a single exponential decay, kon derived from Kd = koff/kon
[7] = molecular target: the molecule itself; assay: SEC; isolated dimer diluted to 5 μM in standard buffer (20 mM HEPES, 150 mM NaCl, 2 mM β-mercaptoethanol) at pH 5.0, 37 °C, aliquots over 2 h on Superdex 75; dimer to monomers; Kd from the equilibrium dimer fraction, koff from a single exponential decay, kon derived from Kd = koff/kon
[8] = molecular target: the molecule itself; assay: SEC; isolated dimer diluted to 5 μM in standard buffer (20 mM HEPES, 150 mM NaCl, 2 mM β-mercaptoethanol) at pH 7.8, 37 °C, aliquots over 2 h on Superdex 75; dimer to monomers; Kd from the equilibrium dimer fraction, koff from a single exponential decay, kon derived from Kd = koff/kon
[9] = molecular target: the molecule itself; assay: SEC; isolated dimer diluted to 5 μM in standard buffer (20 mM HEPES, 150 mM NaCl, 2 mM β-mercaptoethanol) at pH 7.0, 37 °C, aliquots over 2 h on Superdex 75; dimer to monomers; Kd from the equilibrium dimer fraction, koff from a single exponential decay, kon derived from Kd = koff/kon
[10] = molecular target: the molecule itself; assay: SEC; isolated dimer diluted to 5 μM in standard buffer (20 mM HEPES, 150 mM NaCl, 2 mM β-mercaptoethanol) at pH 6.0, 37 °C, aliquots over 2 h on Superdex 75; dimer to monomers; Kd from the equilibrium dimer fraction, koff from a single exponential decay, kon derived from Kd = koff/kon
[11] = monomeric folding intermediate (I)

Work on “Forkhead box protein P1 (FoxP1), forkhead DNA-binding domain, H59A mutant (Homo sapiens; H59A)” yielded a pKa (His54; [11]) of 5.3 and a pKa (His54; unfolded state (U)) of 5.9.

Molecule “Forkhead box protein P1 (FoxP1), forkhead DNA-binding domain, wild type (Homo sapiens)” has a pKa (His59 [1]; [11]) of 5.7, a pKa (His59 [1]; unfolded state (U)) of 7.7 and a pKa (His59 [2]; domain-swapped dimer (D)) of 5.5. The pKa (His59 [2]; monomer (M)) was 7.3 and the pKa (His59 [2]; transition state (‡) for domain swapping) was 5.5.

Work on “forkhead domain of human FoxP1, H59A mutant (domain or fragment)” yielded a Kd [3] of 7.9 µM, a koff [3] of 0.000988 s⁻¹ and a kon [3] of 125 M⁻¹ s⁻¹. For the same molecule, the Kd [4] was 5.9 µM, the koff [4] was 0.000628 s⁻¹ and the kon [4] was 107 M⁻¹ s⁻¹. The Kd [5] was 7.5 µM, the koff [5] was 0.000723 s⁻¹ and the kon [5] was 96.7 M⁻¹ s⁻¹.

B1: forkhead domain of human FoxP1, wild type (domain or fragment)
chain: AEVRPPFTYASLIRQAILESPEKQLTLNEIYNWFTRMFAYFRRNAATWKNAVRHNLSLHKCFVRVENVKGAVWTVDEVEFQKRRPQK
Molecule B1 has a Kd [6] of 13.1 ± 0.2 µM, a koff [6] of 0.000675 s⁻¹ and a kon [6] of 51.7 M⁻¹ s⁻¹. It also gave a Kd [7] of 31.2 ± 0.3 µM, a koff [7] of 0.00235 s⁻¹ and a kon [7] of 58.3 M⁻¹ s⁻¹. The Kd [8] was 0.6 ± 0.1 µM, the koff [8] was 0.00106 s⁻¹ and the kon [8] was 1790 M⁻¹ s⁻¹. It also gave a Kd [9] of 0.8 ± 0.1 µM, a koff [9] of 0.00113 s⁻¹ and a kon [9] of 1340 M⁻¹ s⁻¹. For the same molecule, the Kd [10] was 3.7 ± 0.3 µM, the koff [10] was 0.000553 s⁻¹ and the kon [10] was 150 M⁻¹ s⁻¹.
